Measured values published in the domain aggregation screens of Martell et al. (2025).

Experiment: soluble fraction after stress (log2 fold change); higher = more stays soluble; pooled small domains, quantitative proteomics
Conditions: stress: 75 degC
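Also: 20 min heating vs room temperature control held 20 min.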

Sequence | soluble fraction (log2)
HMTKDEFLTTLRTLIQDMPPEDRRDVMNYYTEYFEDAGPEREQEVLRQLGSPEQVAREVLGG | -0.0428
HMDSLELADEVGRVSEALQELRPHQREVLELSLVHGRSHQQISEKTGLALGTVKSHARRGLMRVREMLGV | -0.381
HMENVLFVNVLSMTVRELAEMMKIPVNKIIQDSFSKGIMMNPNQRLEYDNFAELAKKYGITVKI | -1.24
HMNIQPAMLNAANGGVAWKERGISMSQIMKRNAHTAEGSQKLWDYAFENFFQKNIDAGNIRDDR | -0.157
HMPMTDYQLIRSNRRTIALQITRDARVVVRAPLYASEADIRRFVESHRAWIESHLDRQRARTD | -3.25
HMGVVEEVAADFEGRAVVGKVDVDEQTELARRFGIMSIPTLVVMKGGKVVEQAVGARGKADIAAMLERH | 0.183
HMGKKQLVVDLQSIITDVPAALKSYGLEIGQDGKSLIYTYDTKGERTGITTLLNDLQKAGLQMTDMKTQQ | -0.0104
HMLPIMDRLITAGISINTAKKWVDKFGDKRIKQNLAYSLAKQKEGKVKTNFVGYLAKAIEEDWGSGWE | -1.5
HMVITISEADVSGTYTKSITQGDWKYIRTWTPFEDERLYDLAKDPMELRDLAPAAPSKLAELRELLSALVS | -1.4
HMDRVSEITLTRLRDYAADGQVRTATLTHRTNVVTGTLRDGRRFSAGVPPMYGDELTTFLLDNGVRVDSDN | -0.41
HMLKEGIKEKINQLQVYADKNDNIIWYDRVVDILSDKDDSVTDEMIEAAIRTLEEAGISVERKQ | 0.0727
HMSSWAEGLTERERHTLMWITKGLSNKLIARELGISDSTVKVYVKNLLRKLNVNSRLELAAWVHTHPL | -1.2
HMGKIILLFSDDDGVFDTALYRVRNYDGHRFAQSLGNAEMKWRHSEDEYFDFVLTSLREDGYDIEEIE | -1.18
HMHVSLSGKIHSELRKLILNGELKAGERLPSEPDLAHELGVSRNSLREAIGLLQREGLLLKKHGIGTFVTD | -1.42
HMFNGDPTTRESILASARAEIDQYGIIGLRLSAVAEKAQVSVPLIYKYFEDRDGLLAVVLGDW | -1.21
HMGNLPPAVINARIKVSPAGRGVFVGFDKGSTSTEAKYADAIRGYLPNIEFNKDDHESVVTVPFNFR | -0.0124
HMNDPNAPITENQLKAIHVLLDKLKVDDNLKHAYIADVLQLDNEPETLKTLTKAQGSMAIERMQLLKDN | 0.736
HMSTTALLEKMVRYIRTLPVISQVVLSLHYYRGMELREIASELDITESRASQLHTTAVLGIRDLLSSY | -3.11
HMVKLDDLTGQDKATAEATITNSGLKYSEQQEFSDEVEAGKVIRTDPGAGTSSLKAGDTVTVYVSRGPEN | 0.215
HMKPKDILLPNFTNLTLDEAKAKAEEVKLNLNVSEEKYDVQIEEGKIISQDPKYQPNYTVKEGSTVNVVVS | ≥ 1.04

Sequence | soluble fraction (log2)
HMSDPTDRLVLEAALKALGEEERQVVLLHAASGLKHREIARDLGLPLSTVLSRYSRALKKLQRYLTEEGVH | -1.2
HMQQVLGDVNEDDKVDFLDAIVVLRHDAEIIQLTDNQMKAAEVNKDGKVDFLDAIMILRYDAEIIGS | -0.0321
HMPRSREVHVEPGMVLEDVTTGFVGAVIRTEKSAGIYVIELEDRRGRRRSFPLGGGFWLDGRPIIALPPLP | -1.81
HMSLPKVLVPTDITVSQLAKYLEVDAIAIVKKLFGLGVVASLNQRLENEQMQLLGQEFGKDIIFTEN | -1.39
HMDLANLQNGQTLPLQRDVEVISIPFGKTISLSEDSVVSIMQAKGSSVSVAYEGRLYLIEGSNLDALGLEP | -1.1
HMGDAVYSKVKDLVNTYNALAKQTGKSDLVSISQSRTWMVNDTKAHEVQWNKIGITIEDDQTLTI | 0.0968
HMPAVTEQTRANLRTAFWSLYREKPTSKITVREITDRAGYNRATFYLYYRDVYDLFEQIEQEIL | -2.37
HMEVTENQEKHAYQEAMDQALRFLAPRFLSRAELTRKLLQKEHDRDVIDAVIDRLEELDYVDDAR | -0.013
HMTAMQYVTIKDIADALGISKSSVSRALAGDVHNVSAQTIERVRAKALEMGYLRNNAAVNLR | -0.413
HMEAISSESIKKMIKSYVSGEDASKPLSDQQIADLLVKEGYMISRRTVAKYRDELGILSSSKRKR | -0.152
HMARTDVKLREVAQELLRMGLLEESLRPHLYRTALASMERLNATLEPLDLIARADEIRGLVFLAVRH | -2.73
HMDIANEQEQIFITAMRNDDFNPILELKMKGYQPSKNVLKSLQPDVSSTTFIAAAKIFQMEGVL | -1
HMANSREIPKLAGIEQEEAVKQLLDLDLKPVIEEITDDDTDAGDVVRTDPAAGEHVAVDTEITVFISIG | -0.987
HMHPTEKNLTSLLADGSFYMNQNKLETAYDTFTKTIELDPSWAEAWNKRATVLYLMGKYELSQADIDQV | 0.0869
HMTVPNVVGQRILAAQDILKNLGLKVLVDTNLPNSQWGLRNVKSTNPGAGAVVRVGDTVTLIAR | -0.441
HMGLSARIAQRIHGLRTAQRMSLEALAARSGVSRSMISLIERNEASPTAVVLEKIATGLNVVLAALFDTP | -1.76
HMKTKILAPIPGSIMVVDVKVGDTVKVGDRLVQLEAMKMENNITSEKAGKITAVLVTAGQKVLQNEVMIEL | -1.01
HMSIGPQMAGRRVLSGDLIARLEAFEGTVVLGRGVAREDALLIATQAGHVRWEPASRRLWVDSTA | -2.38
HMKHKGILTTWNDDRGFGFITPKEGKEPVFVHISAFARGQGRPVLNASLTYRLVRDDQQRPRAEAVRL | -1.33
